The target of assay [1] is T1, hDLL3 (ECD)-strep twin, biotinylated (human, UniProt Q9NYJ7 27-492, biotinylated).
T1 construct: The entry carries a signal peptide (marked only by a dotted line); also called Biotinylated DLL3 antigen; human DLL3 protein
In words: ELISA, biotinylated antigen on streptavidin, OD450. On the procedure: (§1) Streptavidin (abcam, ab136200, 1 μg/mL) was plated at 100 μL/well, and the plates were incubated overnight at 4° C. The plates were washed 3 times with 250 μL of PBST solution (PBS containing 0.1% Tween 20) per well. The plates were blocked with 250 μL of 5% milk per well at 37° C. for 2 h. The plates were washed 3 times with 250 μL of PBST solution per well. Biotinylated DLL3 antigen (1 μg/mL) (SEQ ID NO: 9) was added, and the plates were incubated at 37° C. for 1 h. The plates were washed 3 times with 250 μL of PBST solution per well. Antibodies (maximum concentration 400 nM, serially diluted 4-fold) were formulated, and incubation was performed at 37° C. for 1 h. The plates were washed 6 times with 250 μL of PBST solution per well. […] The plates were washed 6 times with 250 μL of PBST solution per well. TMB (KPL, 5120-0077) substrate solution was added at 100 μL/well, and color development was performed at room temperature for 5-10 min. 1 M H₂SO₄ was added at 100 μL/well to stop the color development, and microplate reader (Molecular Devices, VERSA max) readings at 450 nm were taken.
In general terms: In an ELISA, binding on a coated surface is turned into a signal by an enzyme label.

Another assay concerns the target T2, DLL4 (ACRO, DL4-H5227) (human, UniProt Q9NR61 27-524).
T2 construct: Bought; also called human DLL4
In words: ELISA, DLL4 coated at 1 µg/mL, detection with anti-human IgG (H+L)-HRP, OD450. How it is done: as §1, with “DLL1 (ACRO, DL1-H52H8, 1” for “Streptavidin (abcam, ab136200, 1”, “μg/mL) and DLL4 (ACRO, DL4-H5227, 1 μg/mL) were” for “μg/mL) was”, “well. Test antibodies (maximum concentration 100 nM, serially diluted 4-fold) were” for “well. Biotinylated DLL3 antigen (1 μg/mL) (SEQ ID NO: 9) was”, “incubated” for “incubated at 37° C. for 1 h. The plates were washed 3 times with 250 μL of PBST solution per well. Antibodies (maximum concentration 400 nM, serially diluted 4-fold) were formulated, and incubation was performed”

For assay [2], the target named is T1, hDLL3 (ECD)-strep twin, biotinylated. In words: ELISA, biotinylated antigen on streptavidin. On the procedure: as §1
The target in assay [3] is T3, cynomolgus monkey DLL3 on CHO-s cells (cynomolgus monkey, UniProt Q9NYJ7 27-618 (human entry)).
T3 construct: also called cynoDLL3/CHO-s; CynoDLL3/CHO-S
T3 chain: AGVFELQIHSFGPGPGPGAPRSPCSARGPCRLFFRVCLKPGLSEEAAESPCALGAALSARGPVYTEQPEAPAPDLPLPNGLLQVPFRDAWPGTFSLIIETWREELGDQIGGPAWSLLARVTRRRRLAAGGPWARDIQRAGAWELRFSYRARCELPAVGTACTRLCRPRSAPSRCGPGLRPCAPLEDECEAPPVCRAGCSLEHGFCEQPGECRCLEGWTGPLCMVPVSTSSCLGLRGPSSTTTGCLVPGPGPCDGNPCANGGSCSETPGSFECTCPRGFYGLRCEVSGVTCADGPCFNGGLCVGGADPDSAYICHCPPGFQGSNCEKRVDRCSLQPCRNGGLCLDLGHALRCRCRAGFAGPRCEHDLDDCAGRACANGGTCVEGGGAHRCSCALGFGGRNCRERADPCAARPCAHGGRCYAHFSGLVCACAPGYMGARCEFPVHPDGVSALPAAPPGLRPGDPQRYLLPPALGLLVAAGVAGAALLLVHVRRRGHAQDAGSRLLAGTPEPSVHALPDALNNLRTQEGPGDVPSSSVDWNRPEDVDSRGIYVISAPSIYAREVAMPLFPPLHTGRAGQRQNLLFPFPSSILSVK
In words: flow cytometry, cynoDLL3/CHO-s cells. How it is done: The plates were centrifuged at 300 g for 5 min, and the supernatant was removed. Different concentrations of test antibodies were added at 100 μL/well. The plates were incubated in the dark in a refrigerator at 4° C. for 1 h. After 3 centrifugal washes at 300 g, working concentrations of APC anti-human IgG Fc (BioLegend, 410712) or PE F(ab′)2-goat anti-human IgG (invitrogen, H10104) were added. The plates were incubated in the dark in a refrigerator at 4° C. for 40 min. After 3 centrifugal washes at 300 g, the geometric mean fluorescence intensity was measured on an Invitrogen flow cytometer, and the EC50 values for the binding of the antibodies to DLL3-expressing cells were calculated.
In general terms: A flow cytometer gives signals particle by particle.

The values that follow come from patent US20250376519A1 (JIANGSU HENGRUI PHARMACEUTICALS, published 2025).

T2 sequence (Q9NR61 27-524 limits assumed): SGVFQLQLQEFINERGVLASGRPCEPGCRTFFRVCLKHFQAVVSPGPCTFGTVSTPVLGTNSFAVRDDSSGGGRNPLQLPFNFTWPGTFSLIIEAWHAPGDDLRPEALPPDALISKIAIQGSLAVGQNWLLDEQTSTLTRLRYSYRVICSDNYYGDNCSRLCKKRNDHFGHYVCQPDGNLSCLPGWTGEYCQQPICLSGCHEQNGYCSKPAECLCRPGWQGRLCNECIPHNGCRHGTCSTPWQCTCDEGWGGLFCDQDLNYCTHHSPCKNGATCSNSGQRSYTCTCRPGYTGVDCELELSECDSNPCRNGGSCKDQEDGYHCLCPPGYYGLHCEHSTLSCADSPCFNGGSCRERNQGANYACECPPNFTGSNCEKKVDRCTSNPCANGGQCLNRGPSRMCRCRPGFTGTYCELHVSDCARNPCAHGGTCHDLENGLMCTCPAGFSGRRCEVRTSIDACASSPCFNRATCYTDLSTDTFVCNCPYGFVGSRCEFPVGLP

B1: hu110-I2C-Y body (bispecific antibody)
light: NIVMTQSPKSLAVSLGERATINCKASENVGIFVSWYQQKPGQSPKLLIYGASNRYTGVPDRFSGSGSATDFTLTISSLQAEDVADYYCGQSHSYPLTFGQGTKLEIKRTVAAPSVFIFPPSDEQLKSGTASVVCLLNNFYPREAKVQWKVDNALQSGNSQESVTEQDSKDSTYSLSSTLTLSKADYEKHKVYACEVTHQGLSSPVTKSFNRGEC
heavy: EVQLVQSGAEVKKPGASVKVSCKTSGYTFTDYYMNWVRQAPGQSLEWMGIINPYQGGTSYTQKFKGRVTITVDKSASTAYMELSSLRSEDTAVYYCARHFYDSSYLTYSTMDYWGQGTTVTVSSASTKGPSVFPLAPSSKSTSGGTAALGCLVKDYFPEPVTVSWNSGALTSGVHTFPAVLQSSGLYSLSSVVTVPSSSLGTQTYICNVNHKPSNTKVDKKVEPKSCDKTHTCPPCPAPEAAGGPSVFLFPPKPKDTLMISRTPEVTCVVVDVSHEDPEVKFNWYVDGVEVHNAKTKPREEQYNSTYRVVSVLTVLHQDWLNGKEYKCKVSNKALPAPIEKTISKAKGQPREPQVCTLPPSREEMTKNQVSLSCAVKGFYPSDIAVEWESNGQPENNYKTTPPVLDSDGSFFLVSKLTVDKSRWQQGNVFSCSVMHEALHNHYTQKSLSLSPGK
chain: not shown
notes: Format 2 (Y body: DLL3 Fab-Fc hole + CD3 scFv-Fc knob)
By EC50 is commonly meant the concentration giving half of the maximal effect. The molecule B1 returned an Emax in assay [1] of 0.48. For the same molecule, the binding result with DLL4 (ACRO, DL4-H5227) was “no binding (tested: log[antibody, nM] 2 (100 nM))”. The results for the EC50 in assay [2] and in assay [3] were 0.07 nM and 4.92 nM, respectively.

B2: hu110-S107E-hot Ig (bispecific antibody)
light 1: NIVMTQSPKSLAVSLGERATINCKASENVGIFVSWYQQKPGQSPKLLIYGASNRYTGVPDRFSGSGSATDFTLTISSLQAEDVADYYCGQSHSYPLTFGQGTKLEIKGGGGSSGAPRFLTRPKASVVSVGKDATLSCQIVGNPFPQVSWEKDKQPVTAGVRFRLAQDGDLYRLKILDLQLSDSGQYVCRARNAHGEAFACLGLQVDAEA
heavy 1: EVQLVQSGAEVKKPGASVKVSCKTSGYTFTDYYMNWVRQAPGQSLEWMGIINPYQGGTSYTQKFKGRVTITVDKSASTAYMELSSLRSEDTAVYYCARHFYDSSYLTYSTMDYWGQGTTVTVSSGGGGSGIPPKIECLPIDISIDEGKVLTVASAFTGEPTPEVTWSTGGRKIHSQEQGRFHIENTDDSTTLTIKDVQKQDGGLYTLTLRNEFGSDSATVNIHIRSIDKTHTCPPCPAPEAAGGPSVFLFPPKPKDTLMISRTPEVTCVVVDVSHEDPEVKFNWYVDGVEVHNAKTKPREEQYNSTYRVVSVLTVLHQDWLNGKEYKCKVSNKALPAPIEKTISKAKGQPREPQVCTLPPSREEMTKNQVSLSCAVKGFYPSDIAVEWESNGQPENNYKTTPPVLDSDGSFFLVSKLTVDKSRWQQGNVFSCSVMHEALHNHYTQKSLSLSPGK
heavy 2: not shown
light 2: not shown
notes: Format 1 (Hot-Ig, Titin/Obscurin-replaced DLL3 Fab), DLL3 x CD3
In the case of B2, the Emax in assay [1] was 0.45. For the same molecule, the binding result in the assay with DLL4 (ACRO, DL4-H5227) is “no binding (tested: log[antibody, nM] 2 (100 nM))”. In addition, the figures for the EC50 in assay [2] and in assay [3] were 0.11 nM and 5.01 nM, respectively.

B3: hu110-I2C-hot Ig (bispecific antibody)
light 1: NIVMTQSPKSLAVSLGERATINCKASENVGIFVSWYQQKPGQSPKLLIYGASNRYTGVPDRFSGSGSATDFTLTISSLQAEDVADYYCGQSHSYPLTFGQGTKLEIKGGGGSSGAPRFLTRPKASVVSVGKDATLSCQIVGNPFPQVSWEKDKQPVTAGVRFRLAQDGDLYRLKILDLQLSDSGQYVCRARNAHGEAFACLGLQVDAEA
heavy 1: EVQLVQSGAEVKKPGASVKVSCKTSGYTFTDYYMNWVRQAPGQSLEWMGIINPYQGGTSYTQKFKGRVTITVDKSASTAYMELSSLRSEDTAVYYCARHFYDSSYLTYSTMDYWGQGTTVTVSSGGGGSGIPPKIECLPIDISIDEGKVLTVASAFTGEPTPEVTWSTGGRKIHSQEQGRFHIENTDDSTTLTIKDVQKQDGGLYTLTLRNEFGSDSATVNIHIRSIDKTHTCPPCPAPEAAGGPSVFLFPPKPKDTLMISRTPEVTCVVVDVSHEDPEVKFNWYVDGVEVHNAKTKPREEQYNSTYRVVSVLTVLHQDWLNGKEYKCKVSNKALPAPIEKTISKAKGQPREPQVCTLPPSREEMTKNQVSLSCAVKGFYPSDIAVEWESNGQPENNYKTTPPVLDSDGSFFLVSKLTVDKSRWQQGNVFSCSVMHEALHNHYTQKSLSLSPGK
heavy 2: not shown
light 2: not shown
notes: as for B2
B3: the Emax in assay [1] came to 0.48. In addition, the binding result with DLL4 (ACRO, DL4-H5227) was “no binding (tested: log[antibody, nM] 2 (100 nM))”. The results for the EC50 in assay [2] and in assay [3] were 0.08 nM and 4.92 nM, respectively.
